Measured values published in patent US20020143164.

Tested on: GST-Ras [GST: P08515]
Sequence (P08515 whole entry, looked up): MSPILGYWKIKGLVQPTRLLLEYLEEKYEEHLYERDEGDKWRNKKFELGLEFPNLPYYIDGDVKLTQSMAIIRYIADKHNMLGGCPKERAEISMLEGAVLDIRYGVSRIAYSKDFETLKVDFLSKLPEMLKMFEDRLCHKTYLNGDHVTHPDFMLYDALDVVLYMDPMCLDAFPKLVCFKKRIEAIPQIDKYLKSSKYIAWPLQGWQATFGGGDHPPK

Flag-tagged full-length RasGRF2
fold Ras activation in vitro (bound 32P-GTP, against Ras without GRFs set to 1): the 4.5 fold activation conferred by GRF2, used as a control
